Experimental data published in the supplement of paper PMC7877785.
± gives the uncertainty stated by the source.

Test: self-splicing fitness, log relative to wild type (ln ratio); higher = more splicing; Tetrahymena group I intron in knt gene, E. coli kanamycin selection, DiMSum; sequences stand for … in CUCUCU…GGAGGGAAAAGUUAUCAGGCAUGCACCUGGUAGCUAGUCUUUAAACCAAUAGAUUGCAUCGGUUUAAAAGGCAAGACCGUCAAAUUGCGGGAAAGGGGUCAACAGCCGUUCAGUACCAAGUCUCAGGGGAAACUUUGAGAUGGCCUUGCAAAGGGUAUGGUAAUAAGCUGACGGACAUGGUCCUAACCACGCAGCCAAGUCCUAAGUCAACAGAUCUUCUGUUGAUAUGGAUGCAGUUCACAGACUAAAUGUCGGUCGGGGAAGAUGUAUUCUUCUCAUAAGAUAUAGUCGGACCUCUCCUUAAUGGGAGCUAGCGGAUGAAGUGAUGCAACACUGGAGCCGCUGGGAACUAAUUUGUAUGCGAAAGUAUAUUGAUUAGUUUUGGAGUACUCGUGGUCG
In short: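 Six replicate transformations of E. coli BL21(DE3) with a pET-22b(+) library were grown overnight at 37°C or 30°C. The library randomised all eight P1ex-region intron nucleotides, the intron lying in the knt kanamycin-resistance gene, and plates were LB agar with or without 25 μg/mL kanamycin plus 100 μg/mL carbenicillin, 50 μM IPTG and 0.2% rhamnose. Pooled colonies were amplicon-sequenced on an Illumina HiSeq 2500, and fitness is the DiMSum error-weighted combination of wild-type-normalised replicate fold changes, kanamycin versus none.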

| Sequence | self-splicing fitness (ln) (30 °C) | self-splicing fitness (ln) (37 °C) |
| --- | --- | --- |
| AAGCAGCAAUAUUACGCACC | -0.735 ± 0.085 | 0.0945 ± 0.09 |
| AAGCAGCAAUAUUACGCAUA | -2.01 ± 0.11 | -0.237 ± 0.1 |
| AAGCAGCAAUAUUACGCCCA | -0.461 ± 0.15 | 0.244 ± 0.23 |
| AAGCAGCAAUAUUACGCUGU | – | -2.7 ± 0.23 |
| AAGCAGCAAUAUUACGGACC | -1.42 ± 0.14 | -0.369 ± 0.17 |
| AAGCAGCAAUAUUACGGAUA | -2.22 ± 0.2 | -1.72 ± 0.15 |
| AAGCAGCAAUAUUACGGCUC | -1.67 ± 0.093 | -0.463 ± 0.14 |
| AAGCAGCAAUAUUACGGGCA | -0.552 ± 0.072 | -0.789 ± 0.077 |
| AAGCAGCAAUAUUACGGGCC | -1.76 ± 0.15 | -1.53 ± 0.15 |
| AAGCAGCAAUAUUACGGGGA | -3.53 ± 0.33 | -1.11 ± 0.13 |
| AAGCAGCAAUAUUACGGUAC | -3.08 ± 0.23 | -2.49 ± 0.22 |
| AAGCAGCAAUAUUACGUACG | -2.18 ± 0.12 | -0.645 ± 0.13 |
| AAGCAGCAAUAUUACGUACU | 0.254 ± 0.1 | 0.172 ± 0.11 |
| AAGCAGCAAUAUUACGUAGU | -2.61 ± 0.1 | -2.47 ± 0.14 |
| AAGCAGCAAUAUUACGUAUU | -2.12 ± 0.058 | -1.43 ± 0.082 |
| AAGCAGCAAUAUUACGUCUA | -1 ± 0.053 | -1.53 ± 0.062 |
| AAGCAGCAAUAUUACGUUCU | -0.454 ± 0.056 | 0.0556 ± 0.076 |
| AAGGAGCAAUAUUACGAGCC | -0.997 ± 0.17 | – |
| AAGGAGCAAUAUUACGAGCG | -2.53 ± 0.2 | -2.19 ± 0.49 |
| AAGGAGCAAUAUUACGAUCG | -1.99 ± 0.19 | -1.8 ± 0.27 |
| AAGGAGCAAUAUUACGCAAU | -2.67 ± 0.17 | -1.71 ± 0.19 |

| Sequence | self-splicing fitness (ln) (30 °C) | self-splicing fitness (ln) (37 °C) |
| --- | --- | --- |
| AAGGAGCAAUAUUACGCAGG | -3.65 ± 0.32 | -2.22 ± 0.39 |
| AAGGAGCAAUAUUACGCCCA | -1.88 ± 0.27 | -1.46 ± 0.24 |
| AAGGAGCAAUAUUACGCGCU | -3.5 ± 0.44 | -1.5 ± 0.4 |
| AAGGAGCAAUAUUACGCUCC | – | -1.7 ± 0.47 |
| AAGGAGCAAUAUUACGCUGG | -2.18 ± 0.24 | -2.24 ± 0.31 |
| AAGGAGCAAUAUUACGGAAC | – | -2.52 ± 0.36 |
| AAGGAGCAAUAUUACGGAUC | -2.64 ± 0.36 | – |
| AAGGAGCAAUAUUACGGCAG | -2.86 ± 0.33 | -1.75 ± 0.32 |
| AAGGAGCAAUAUUACGGUAG | -3.82 ± 0.29 | -2.75 ± 0.26 |
| AAGGAGCAAUAUUACGGUGU | -3.44 ± 0.24 | -1.77 ± 0.19 |
| AAGGAGCAAUAUUACGGUUA | -2.54 ± 0.34 | – |
| AAGGAGCAAUAUUACGUAAA | -2.81 ± 0.32 | -0.663 ± 0.24 |
| AAGGAGCAAUAUUACGUCUU | -1.9 ± 0.09 | -1.14 ± 0.13 |
| AAGGAGCAAUAUUACGUGCU | – | -2.92 ± 0.47 |
| AAGGAGCAAUAUUACGUUUU | -3.02 ± 0.22 | -1.94 ± 0.2 |
| AAGUAGCAAUAUUACGAAUA | -3.24 ± 0.34 | -2.29 ± 0.23 |
| AAGUAGCAAUAUUACGACAG | -2.86 ± 0.18 | -1.66 ± 0.21 |
| AAGUAGCAAUAUUACGACCG | -1.89 ± 0.086 | -1.35 ± 0.12 |
| AAGUAGCAAUAUUACGACGA | 0.0522 ± 0.098 | 0.0374 ± 0.11 |
| AAGUAGCAAUAUUACGACUC | 0.858 ± 0.25 | 0.537 ± 0.24 |
